According to paper PMC8671946:

Molecular target: HER2/PD-L1 BsAb (humanized bispecific IgG1 subclass antibody targeting both HER2 and PD-L1)
Test: BLI; Octet RED96; antibody (10 ug/ml) immobilised on Protein A biosensors; 6xHis-tagged antigens two-fold serially titrated from 100 nM; PBS with 0.02% Tween 20 and 0.1% BSA, room temperature

human epidermal growth factor receptor 2 (HER2), recombinant, 6xHis-tagged (from UniProt P04626 23-652)
Kd: 6.36 nM
